Article PMC8749432

What was measured:
[1] = molecular target: HIV-1 BG505.W6M.B1 envelope glycoprotein A204E on SHIV-BG505 virions (HIV-1)
[2] = molecular target: HIV-1 BG505.W6M.B1 envelope glycoprotein I423A on SHIV-BG505 virions (HIV-1)
[3] = molecular target: HIV-1 BG505.W6M.B1 envelope glycoprotein L193A on SHIV-BG505 virions (HIV-1)

Question: Which results are given for “Soluble rhesus CD4 (Met1-Trp390) with C-terminal 6×His tag (from UniProt P16003 26-390) (domain or fragment)”?
Answer: neutralisation of SHIV-BG505 infection of TZM-bl cells by soluble rhCD4; sensitivity against WT SHIV (fold more sensitive than WT SHIV) [1]: 1500; neutralisation of SHIV-BG505 infection of TZM-bl cells by soluble rhCD4; sensitivity against WT SHIV (fold more sensitive than WT SHIV) [2]: 30; neutralisation of SHIV-BG505 infection of TZM-bl cells by soluble rhCD4; sensitivity against WT SHIV (fold more sensitive than WT SHIV) [3]: 3
